How the values were obtained:
[1] = biological target: T1, recombinant ZIKV E protein (ectodomain of Zika virus envelope glycoprotein E) (Zika virus; PDB 8DV6 source …); test: crystal structure; recombinant ZIKV E and G9E Fab mixed 1:1.2 at room temperature for 30 min, complex purified on Superdex 200-increase; crystals in 100 mM HEPES pH 7.5, 10% (w/v) PEG 8000; 3.4 Å; settings: both partners purified
T1 construct: also called soluble E; E-dimer

[2] = biological target: T2, ZIKV E protein on wild-type Zika virus H/PF/2013 in culture supernatant (Zika virus strain H/PF/2013, UniProt A0A024B7W1); test: ELISA; ZIKV capture ELISA: virus (WT or rZIKV-D67N) in culture supernatant captured by plate-bound mAb 4G2; mAbs added 1 h at 37°C; anti-human Fc alkaline phosphatase; signal normalized to ZKA-190; settings: one partner purified
T2 construct: also called WT ZIKV; ZIKV H/PF/2013; source: ZIKV in culture supernatant

B1: G9E Fab (antigen binding fragment of human monoclonal antibody G9E, wild type) (Fab, V domains shown)
VH: RVHLVESGGGVVQPGRSLRLSCVASGFAFSNYHMHWVRQAPGKGLEWVAIIWDDGSDQYYADSVKGRFTISRDNSKNTLFLQMNRLRAEDTALYYCVGGSSAYNGDNGWREAASLDDWGQGTLVTVSS
VL: QSALTQPASVSGSPGQSITIFCSGSSNDVGGYNYVSWYQQYPGKVPKLLIYDVNSRPSGVSNRFSGSKSGNTASLTISGLQAEDEADYYCSSYTSRRTWVFGGGTIVTVL
notes: also called Fab G9E; G9E WT
Does B1 bind [1]?
Result: binds

B2: HuZV-67, humanized version of the ZIKV specific mouse EDIII mAb ZV-67, IgG1 format (antibody, V domains shown)
VH: QAQLQQSGTGLARPGASVKLSCKASGYTFTSYGISWVTQRAGQGLEWIGVIYPRSGNTYYNEKFRGKATLTADKSSSSAYMELRGLTAEDSAVYFCARENYGSVYWGQGTTLTVSS
VL: DIVMTQSQKFMSTSVGDRVSITCKASQNVGTAVAWYQQKPGQSPKLLIYSASNRYTGVPDRFTGSGSGTDFTLTISNMQSEDLADYFCQQFSSYPYTFGGGTKLEIK
notes: IgG1; source: Expi293, purified (MabSelect resin)
Does B2 bind [2]?
Result: binds

Source: publication PMC9870165, “Structure and neutralization mechanism of a human antibody targeting a complex Epitope on Zika virus” (PLOS Pathogens, 2023)
